Experimental findings from the supplement of paper PMC10126150 are described below.

The data set deals with ATP. In words: switch fluorescence ratio, 500 uM ATP over buffer (Cy3 cluster intensity, sum of 5 cycles each) (fold (ratio)); higher = stronger signal-on switching upon ATP binding; sequences stand for … in TCGTCGGCAGCGTCAGATGTGTATAAGAGACAGTTTTTTTTTTTTTTTTTTTTTTTTT…TC. To be noted: aptamer strand: ATP DNA aptamer (quencher-CACCTGGGGGAGTATTGCGGAGGAAGG + anchor), 100 nM annealed; ATP concentration: 500 uM. In short, it runs like this:
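Cy3-labelled switching-strand clusters on a modified Illumina MiSeq flow-cell were annealed to 100 nM quencher-labelled ATP aptamer, imaged in selection buffer, then imaged after 15 min with 500 uM ATP at 22 °C. Five buffer/ATP cycles ran, with NaOH stripping and re-annealing between them. The fluorescence ratio is summed target-cycle over summed buffer-cycle Cy3 intensity per cluster, averaged per switch-domain sequence. Clusters outside 100-1000 RFU were excluded.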

± gives the standard deviation of the averaged measurements.
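Note: ATP exposure 15 min at 22 °C before imaging.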

Consider AAGGGGGGTG, for which the switch fluorescence ratio is 1.03 ± 0.048.

Turning to AAGGGGGTCT, the switch fluorescence ratio was determined as 1.02 ± 0.083. As for AAGGGGGTTT, the switch fluorescence ratio turned out to be 1 ± 0.036. For AAGGGGTATC, the switch fluorescence ratio came to 1.02 ± 0.05. As to AAGGGGTCTG, the switch fluorescence ratio came to 0.979 ± 0.02.

With AAGGGGTTGA, the switch fluorescence ratio came out at 1.01 ± 0.023. As to AAGGGGTTTC, the switch fluorescence ratio turned out to be 0.9746 ± 0.0067. Take AAGGGTGATG: the switch fluorescence ratio stood at 1 ± 0.049. On to AAGGGTGGGT, for which the switch fluorescence ratio was found to be 0.9876 ± 0.0045.

As to AAGGGTTGCT, the switch fluorescence ratio was 1.01 ± 0.042. The same measure for AAGGGTTGTC: 0.999 ± 0.088. In the case of AAGGGTTTAC, the switch fluorescence ratio was found to be 0.995 ± 0.035.

AAGGGTTTAG: the switch fluorescence ratio was found to be 1 ± 0.067. The same measure for AAGGTAAGAG: 0.999 ± 0.037; for AAGGTAAGGT: 1 ± 0.023. In the case of AAGGTAGGCG it was 0.987 ± 0.011; in that of AAGGTAGTCT, 1 ± 0.024.

With AAGGTATGTC, the switch fluorescence ratio stood at 1.01 ± 0.063. In the case of AAGGTATGTG it was 1.025 ± 0.0038; in that of AAGGTCGCGG, 1 ± 0.017; in that of AAGGTCGTCA, 0.9613 ± 0.0023.

Regarding AAGGTGCAAG, the switch fluorescence ratio was 1.03 ± 0.053.

AAGGTGGATG: the switch fluorescence ratio worked out at 0.992 ± 0.021.

For the sequence AAGGTGGGAC, the switch fluorescence ratio is 1.02 ± 0.021. Turning to AAGGTGGGTA, the switch fluorescence ratio was 0.99 ± 0.031.

Turning to AAGGTGGGTG, the switch fluorescence ratio is 0.999 ± 0.029. Turning to AAGGTGTAGC, the switch fluorescence ratio is 0.9839 ± 0.0091.

Consider AAGGTGTCGA, for which the switch fluorescence ratio amounted to 0.967 ± 0.019.

In the case of AAGGTGTGTT, the switch fluorescence ratio was determined as 1.08 ± 0.068. Turning to AAGGTGTTTC, the switch fluorescence ratio is 1.083 ± 0.0066. In the case of AAGGTTCCTG it was 0.98 ± 0.03; in that of AAGGTTGCGT, 0.986 ± 0.04; in that of AAGGTTTCAT, 1 ± 0.031. In the case of AAGGTTTCGG it was 0.985 ± 0.038. Turning to AAGGTTTTAA, the switch fluorescence ratio worked out at 0.9825 ± 0.0066. With AAGGTTTTTG, the switch fluorescence ratio worked out at 1 ± 0.03. The same measure for AAGTAAGTTG: 0.9806 ± 0.0064; for AAGTACAGCG: 1.03 ± 0.026; for AAGTACGAGG: 1.27 ± 0.17. In the case of AAGTACGCTG, the switch fluorescence ratio worked out at 1 ± 0.11.

AAGTACGGTG: the switch fluorescence ratio was found to be 1.19 ± 0.089. Consider AAGTAGCGCT, for which the switch fluorescence ratio amounted to 1 ± 0.024. In the case of AAGTAGCTAT it was 1.01 ± 0.043. The same measure for AAGTAGGAGT: 0.994 ± 0.034; for AAGTAGGGGC: 1.02 ± 0.015.

Regarding AAGTAGGGTA, the switch fluorescence ratio was 1.03 ± 0.025. The same measure for AAGTAGTGCG: 1.01 ± 0.041; for AAGTAGTTTT: 0.985 ± 0.024.

For the sequence AAGTATAAGG, the switch fluorescence ratio turned out to be 0.994 ± 0.011.

Consider AAGTATATGA, for which the switch fluorescence ratio was determined as 1.004 ± 0.0083. Take AAGTATATTT: the switch fluorescence ratio turned out to be 1.001 ± 0.0047. For AAGTATGGGG, the switch fluorescence ratio came to 0.978 ± 0.021.

In the case of AAGTATGTTC, the switch fluorescence ratio came out at 1.004 ± 0.0014. In the case of AAGTATTTAG, the switch fluorescence ratio was determined as 0.994 ± 0.024.

In the case of AAGTATTTTT, the switch fluorescence ratio is 1.018 ± 0.0058. The same measure for AAGTCAGGGG: 1.05 ± 0.13. The same measure for AAGTCATGGG: 1.01 ± 0.031; for AAGTCCGGGA: 0.998 ± 0.035.

For the sequence AAGTCCGGGC, the switch fluorescence ratio came to 1.02 ± 0.018. In the case of AAGTCGGATA it was 1 ± 0.028; in that of AAGTCTTTCG, 1.01 ± 0.012; in that of AAGTGCGGGC, 1.04 ± 0.027. In the case of AAGTGCTACC, the switch fluorescence ratio was 1.02 ± 0.06.

Regarding AAGTGCTGTG, the switch fluorescence ratio came to 0.996 ± 0.029. Regarding AAGTGGAGTC, the switch fluorescence ratio was determined as 1.05 ± 0.085. The same measure for AAGTGGCCGG: 0.961 ± 0.074; for AAGTGGGAAT: 1.02 ± 0.013.

Regarding AAGTGGGGG, the switch fluorescence ratio was 0.992 ± 0.016. As for AAGTGGGGTG, the switch fluorescence ratio turned out to be 0.982 ± 0.019.

With AAGTGGGTAT, the switch fluorescence ratio was 1.16 ± 0.23.

Consider AAGTGGTTAG, for which the switch fluorescence ratio stood at 0.98 ± 0.027. In the case of AAGTGTGGGT it was 1 ± 0.075. The same measure for AAGTGTTATT: 0.992 ± 0.026; for AAGTTAATGG: 1.015 ± 0.0071; for AAGTTACAGT: 1.04 ± 0.036. AAGTTAGGTC: the switch fluorescence ratio was 0.969 ± 0.047. In the case of AAGTTATAAC it was 0.956 ± 0.067. In the case of AAGTTCACGT it was 0.996 ± 0.02.
